Data: patent US20200339678A1 (RIGEL PHARMACEUTICALS, published 2020)

T1: human TIGIT fused to a beta galactosidase fragment, expressed on YTS cells (human, UniProt Q495A1 22-244)
T1 sequence (looked up): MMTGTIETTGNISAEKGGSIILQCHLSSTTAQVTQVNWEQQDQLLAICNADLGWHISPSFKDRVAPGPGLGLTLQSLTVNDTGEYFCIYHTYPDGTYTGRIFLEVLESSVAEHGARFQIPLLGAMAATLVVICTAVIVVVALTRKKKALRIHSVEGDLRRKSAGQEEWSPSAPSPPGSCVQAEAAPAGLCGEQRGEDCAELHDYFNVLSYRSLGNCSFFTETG

T2: mouse TIGIT-Fc (mouse, UniProt P86176 29-148)
T2 construct: extracellular domain; also called mouse TIGIT extra cellular domain
T2 sequence (looked up): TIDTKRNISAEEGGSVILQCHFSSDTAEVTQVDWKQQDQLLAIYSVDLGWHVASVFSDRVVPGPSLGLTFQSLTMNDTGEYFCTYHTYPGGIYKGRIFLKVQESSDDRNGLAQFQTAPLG

T3: biotinylated human TIGIT (human, UniProt Q495A1 22-141, biotinylated (EZ-Link NHS-PEG4-biotin kit))
T3 construct: extracellular domain; also called human TIGIT extra cellular domain; TIGIT-ECD
T3 sequence (looked up): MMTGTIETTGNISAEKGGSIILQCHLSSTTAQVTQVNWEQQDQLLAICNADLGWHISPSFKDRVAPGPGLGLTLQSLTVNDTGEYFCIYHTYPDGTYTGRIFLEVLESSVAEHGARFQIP

T4: His-tagged recombinant Mouse TIGIT (mouse, UniProt P86176 29-148, limits assumed)
T4 construct: Coated on the plate at 0.5 µg/mL in the direct ELISA; not shown: His tag
T4 sequence (looked up): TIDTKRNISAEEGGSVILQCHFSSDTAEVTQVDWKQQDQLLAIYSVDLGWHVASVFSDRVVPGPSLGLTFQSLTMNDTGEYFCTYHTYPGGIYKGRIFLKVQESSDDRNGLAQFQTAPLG

T5: human TIGIT expressed in YTS cells, fused to a portion of beta galactosidase (human, UniProt Q495A1 22-244)
T5 sequence (looked up): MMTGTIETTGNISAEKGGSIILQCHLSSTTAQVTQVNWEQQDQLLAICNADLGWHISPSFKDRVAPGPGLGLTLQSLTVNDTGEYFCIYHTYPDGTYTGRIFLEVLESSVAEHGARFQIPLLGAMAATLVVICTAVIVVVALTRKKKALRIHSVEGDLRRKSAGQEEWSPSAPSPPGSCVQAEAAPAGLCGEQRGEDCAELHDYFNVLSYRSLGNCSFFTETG

T6: mouse TIGIT-Fc (mouse, UniProt P86176 29-148)
T6 construct: extracellular domain; also called mouse TIGIT-ECD; not shown: Fc
T6 sequence (looked up): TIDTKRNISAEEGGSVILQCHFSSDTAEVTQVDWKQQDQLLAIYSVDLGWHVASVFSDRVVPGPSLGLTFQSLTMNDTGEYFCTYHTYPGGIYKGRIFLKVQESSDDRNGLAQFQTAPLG

T7: His-tagged recombinant Human TIGIT (human, UniProt Q495A1 22-141)
T7 construct: Coated on the plate at 0.5 µg/mL in the direct ELISA; also called hTIGIT; not shown: His tag
T7 sequence (looked up): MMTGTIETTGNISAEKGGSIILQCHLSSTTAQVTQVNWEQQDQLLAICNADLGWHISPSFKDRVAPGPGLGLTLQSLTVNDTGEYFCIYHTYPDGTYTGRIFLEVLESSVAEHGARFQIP

T8: biotinylated human TIGIT extra cellular domain (human, UniProt Q495A1 22-141, biotinylated using the EZ-Link NHS-PEG4-biotin kit)
T8 construct: extracellular domain; also called human TIGIT-ECD
T8 sequence (looked up): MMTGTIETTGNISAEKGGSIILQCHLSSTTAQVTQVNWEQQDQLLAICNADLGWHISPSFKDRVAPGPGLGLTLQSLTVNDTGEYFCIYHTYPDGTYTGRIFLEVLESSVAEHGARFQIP


Tests used:
[1] = target: T1, human TIGIT fused to a beta …; test: cell-based or functional assay
[2] = target: T1, human TIGIT fused to a beta …; test: cell-based or functional assay; remark: listed apart in the source
[3] = target: T2, mouse TIGIT-Fc; test: competitive ELISA, mTIGIT-Fc to coated PVR
Description: (§1) Antibodies were serially diluted in a 10-point curve starting at 1 μM in 3-fold steps. […] Units are in microM.

[4] = target: T3, biotinylated human TIGIT; test: competitive ELISA, biotin-hTIGIT to coated PVR
Description: as §1

[5] = target: T4, His-tagged recombinant Mouse TIGIT; test: ELISA
Description: (§2) Binding affinities for antigen binding to anti-TIGIT monoclonal antibodies were determined by ELISA. […] Antibodies to be tested were diluted to 1 μM in PBS buffer containing 1% BSA and diluted 3-fold in a 10-point curve. […] Detection of the secondary antibody was determined using streptavidin-HRP and TMB reagent. All assays were performed at room temperature. Curve-fitting software was used to determine the EC₅₀ for each antibody.

[6] = target: T5, human TIGIT expressed in YTS cells, …; test: cell-based or functional assay
[7] = target: T6, mouse TIGIT-Fc; test: competitive ELISA vs coated PVR
Description: as §1

[8] = target: T7, His-tagged recombinant Human TIGIT; test: ELISA
Description: as §2

[9] = target: T8, biotinylated human TIGIT extra cellular …; test: competitive ELISA vs coated PVR
Description: as §1

Binder	IC50 of inhibition of Grb2 recruitment (YTS_hTIGIT/hGrb2, 221_hPVR/ICAM, 11 pt) [1] [nM]	EC50 of induced dimerization (YTS_hTIGIT/hTIGIT, 11 pt) [2] [nM]	IC50 [3] [nM]	IC50 [4] [nM]	EC50 [5] [nM]	YTS_hTIGI/hGrbs_EFC_Agonism (EC50) [6] [nM]	YTS_hTIGI/hGrbs_EFC_Antagonism (IC50) [6] [nM]	YTS_hTIGIT/hTIGIT_EFC (EC50) [6] [nM]	IC50 [7] [nM]	EC50 [8] [nM]	IC50 [9] [nM]
Ab143 (Fab, V domains shown, clone from a phage library of monovalent human Fabs; also called clone Ab143) VH: EVQLLESGGGLVQPGGSLRLSCAASGFTFSSYSMHWVRQAPGKGLEWVAAINSNAGSSSYADSVKGRFTISRDNSKNTLYLQMNSLRAEDTAVYYCARVPYGVWMDYWGQGTLVTVSS VL: not shown	60.2	4.7	22	20.3							
Ab117 (Fab, V domains shown, ARE) VH: EVQLLESGGGLVQPGGSLRLSCAASGFTFSSYAMSWVRQAPGKGLEWVAAIKSSASTIYYADSVKGRFTISRDNSKNTLYLQMNSLRAEDTAVYYCAREPYSVWMDYWGQGTLVTVSS VL: not shown					10.7	> 1000	> 1000	> 1000	23.4		
Ab143 (Fab, V domains shown, ARV) VH: EVQLLESGGGLVQPGGSLRLSCAASGFTFSSYSMHWVRQAPGKGLEWVAAINSNAGSSSYADSVKGRFTISRDNSKNTLYLQMNSLRAEDTAVYYCARVPYGVWMDYWGQGTLVTVSS VL: not shown					5.7	> 1000	60.2	4.7	22	3.4	20.3
